Results from the supplement of paper PMC10724198.
± gives the standard deviation of the averaged measurements.

Test system: Saccharomyces cerevisiae
Experiment: protein stability index of tFT-peptide fusion (C-terminal peptide) (PSI (0-1 scale)); higher = more stable (slower turnover)
Conditions: temperature: 30 C
Procedure: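 MPS profiling in S. cerevisiae of the yeast C-terminome library: the last 12 aa of each annotated ORF are fused to the C-terminus of a sfGFP-mCherry timer, after a GGGS linker. Cells are FACS-sorted into 8 mCherry/sfGFP bins and deep-sequenced. PSI runs from 0 (unstable) to 1 (stable); wild type and das1Δ backgrounds, two technical replicates each.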

[1] = genetic background: das1 deletion

Sequence | protein stability index [1] | protein stability index (genetic background: wild type)
AIAEIKKSLAFA [SDH2 C-terminal 12 aa] | 0.684 ± 0.024 | 0.688 ± 0.086
ARRTFTGRKIVY [ARC35 C-terminal 12 aa] | 0.7301 ± 0.0013 | 0.7288 ± 0.0052
GTDLLKENRNCS [YML096W C-terminal 12 aa] | 0.669 ± 0.0067 | 0.6895 ± 0.0012
LVKLYISFFFMC [YBR144C C-terminal 12 aa] | 0.313 ± 0.0049 | 0.136 ± 0.0087
EAHREQIGGATY [SMT3 C-terminal 12 aa] | 0.691 ± 0.016 | 0.676 ± 0.011
QGILMAKQYHIK [YSA1 C-terminal 12 aa] | 0.714 ± 0.018 | 0.702 ± 0.02
MNKAEDDISEEE [SUB1 C-terminal 12 aa] | 0.713 ± 0.029 | 0.684 ± 0.011
FHDWFIRQFVSN [SNO1 C-terminal 12 aa] | 0.73 ± 0.0093 | 0.321 ± 0.034
EHVGKQCGYKYH [STP3 C-terminal 12 aa] | 0.705 ± 0.023 | 0.7096 ± 0.0013
LGVVSKMLVTCK [CIA2 C-terminal 12 aa] | 0.303 ± 0.026 | 0.326 ± 0.0041
YAEGSLVKTEKL [FAA2 C-terminal 12 aa] | 0.70242 ± 0.0001 | 0.698 ± 0.016
LNKIKNIRKKKQ [SNQ2 C-terminal 12 aa] | 0.705 ± 0.031 | 0.393 ± 0.021
YCPELGKTECFD [FMP30 C-terminal 12 aa] | 0.691 ± 0.0061 | 0.69 ± 0.0088
DHMQLTGRILVL [YJL132W C-terminal 12 aa] | 0.58733 ± 0.00058 | 0.5716 ± 0.0024
YNIKRVLGVVYC [YAL067W-A C-terminal 12 aa] | 0.345 ± 0.031 | 0.362 ± 0.0077
HHVESVCIMKRI [TRM2 C-terminal 12 aa] | 0.668 ± 0.014 | 0.675 ± 0.034
PMGDIPVHLFKR [ACF4 C-terminal 12 aa] | 0.709 ± 0.013 | 0.729 ± 0.014
ECRKKNYFKCKH [ATG39 C-terminal 12 aa] | 0.692 ± 0.0091 | 0.187 ± 0.0042
KKKGLFGRMKKK [YMR295C C-terminal 12 aa] | 0.719 ± 0.028 | 0.69 ± 0.067

Sequence | protein stability index [1] | protein stability index (genetic background: wild type)
ESNSALDFTRLA [SSU1 C-terminal 12 aa] | 0.707 ± 0.025 | 0.712 ± 0.059
TCVYKKPERHKA [TCM62 C-terminal 12 aa] | 0.707 ± 0.03 | 0.701 ± 0.024
LEKDTRQDTKAN [MCO10 C-terminal 12 aa] | 0.693 ± 0.0045 | 0.671 ± 0.025
ENLTQKKKQSAN [PCT1 C-terminal 12 aa] | 0.703 ± 0.0058 | 0.65 ± 0.011
FLGIELHAFFVS [YOL035C C-terminal 12 aa] | 0.6355 ± 0.0029 | 0.635 ± 0.058
RLIKHINDIFWK [GPI13 C-terminal 12 aa] | 0.717 ± 0.077 | 0.723 ± 0.092
SQMRPPSQGDKI [DAL82 C-terminal 12 aa] | 0.714 ± 0.024 | 0.675 ± 0.023
DKEWTNYATHIG [AYT1 C-terminal 12 aa] | 0.696 ± 0.019 | 0.701 ± 0.013
VSDAMFDQGDVF [GDH1 C-terminal 12 aa] | 0.72756 ± 0.0006 | 0.707 ± 0.012
LKGILNLFSKIR [KRE29 C-terminal 12 aa] | 0.671 ± 0.0078 | 0.699 ± 0.025
SGYSFNGSYGKS [WHI4 C-terminal 12 aa] | 0.671 ± 0.0029 | 0.659 ± 0.022
EFDDYESRMHGI [EAR1 C-terminal 12 aa] | 0.73 ± 0.029 | 0.694 ± 0.0086
KAIRRCQAIGLM [RSM18 C-terminal 12 aa] | 0.683 ± 0.014 | 0.672 ± 0.0076
LGIVIKRGKSLK [YJU2 C-terminal 12 aa] | 0.7248 ± 0.0027 | 0.738 ± 0.024
DSPDFKKHLEKK [RSM10 C-terminal 12 aa] | 0.684 ± 0.025 | 0.721 ± 0.046
VRGRKSRNTSRV [REP2 C-terminal 12 aa] | 0.711 ± 0.013 | 0.755 ± 0.035
WKKFIPKTWLSS [CQD2 C-terminal 12 aa] | 0.7 ± 0.0086 | 0.4878 ± 0.0047
VSYFSIFSLFFF [YKL096C-B C-terminal 12 aa] | 0.667 ± 0.047 | 0.603 ± 0.016
SRVYAYYLTHEK [NNT1 C-terminal 12 aa] | 0.666 ± 0.007 | 0.67 ± 0.018

Sequence | protein stability index [1] | protein stability index (genetic background: wild type)
TAIAHRAYIQLK [RSM7 C-terminal 12 aa] | 0.709 ± 0.035 | 0.685 ± 0.033
NDDSKDEVDIIP [YPR196W C-terminal 12 aa] | 0.69 ± 0.013 | 0.698 ± 0.015
WKEVLKFPKSFN [HXT15 C-terminal 12 aa] | 0.724 ± 0.0077 | 0.714 ± 0.031
SLLVEDGGNPTA [YPL150W C-terminal 12 aa] | 0.695 ± 0.007 | 0.69 ± 0.026
LVICCQRCRRNC [YPL277C C-terminal 12 aa] | 0.69 ± 0.0082 | 0.552 ± 0.051
NTSTYGQTVQPV [YLR456W C-terminal 12 aa] | 0.6791 ± 0.00098 | 0.678 ± 0.041
RDLHVEHDNEFY [RPD3 C-terminal 12 aa] | 0.718 ± 0.019 | 0.662 ± 0.074
IVQLGMSHGDIS [SMF1 C-terminal 12 aa] | 0.711 ± 0.028 | 0.699 ± 0.023
LEYYSNRDNDMN [RIF1 C-terminal 12 aa] | 0.672 ± 0.042 | 0.69 ± 0.026
DVETRVQNLEQT [DPB4 C-terminal 12 aa] | 0.713 ± 0.032 | 0.699 ± 0.013
FGKRRFFYRDLA [YPR146C C-terminal 12 aa] | 0.6901 ± 0.0029 | 0.693 ± 0.014
GDDESRPRKMRR [BMS1 C-terminal 12 aa] | 0.678 ± 0.0091 | 0.674 ± 0.012
NKGPPCKTSALL [HMG2 C-terminal 12 aa] | 0.739 ± 0.023 | 0.668 ± 0.011
ERAIKTVRYLLY [YOL079W C-terminal 12 aa] | 0.678 ± 0.008 | 0.631 ± 0.021
PREGRLDKTPTY [KAR9 C-terminal 12 aa] | 0.706 ± 0.008 | 0.704 ± 0.036
DKYLCMLKTCVF [NUT1 C-terminal 12 aa] | 0.515 ± 0.019 | 0.517 ± 0.021
IDASKDQDTMME [NUG1 C-terminal 12 aa] | 0.693 ± 0.019 | 0.736 ± 0.068
IKNTGDLLKLYK [ALK1 C-terminal 12 aa] | 0.685 ± 0.021 | 0.647 ± 0.0085
TSASSNFDDSFS [YCR018C-A C-terminal 12 aa] | 0.6885 ± 0.0016 | 0.717 ± 0.062
